# Source: the supplement of paper PMC9170038
# System: MS2 coat protein
# Test: apparent KD of MS2 coat protein; designed switch direction (-1 OFF switch, 1 ON switch): -1; higher = weaker reporter binding
# Procedure, shortened: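 Normalised cluster fluorescence was curve-fitted, and each design's median over clusters is its apparent KD. Before this, SNAP-549-labelled MS2 coat protein was titrated from 0.7 or 1.5 nM, doubling to 3 µM, over RNA switches transcribed on Illumina chips by stalled E. coli RNA polymerase. Titrations had no input, 200 uM small-molecule ligand, or an oligonucleotide input, and steps lasted 0.8–1.5 h (lowest) to 10–20 min (highest).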
# [1] = Eterna round: R95, input ligand: microRNA oligo, concentration not stated
# [2] = Eterna round: R95, input ligand: FMN 200 uM
# [3] = Eterna round: R95, input ligand: none
# [4] = input ligand: microRNA oligo, concentration not stated
Sequence,apparent KD of MS2 coat protein [1] [nM],apparent KD of MS2 coat protein (input ligand: FMN 200 uM) [nM],apparent KD of MS2 coat protein (input ligand: none) [nM],apparent KD of MS2 coat protein [2] [nM],apparent KD of MS2 coat protein [3] [nM],apparent KD of MS2 coat protein [4] [nM]
GAAGCACAUGAGGAUCACCCAUGUGAGGAUAUCCGUCUGGUCCGGCCGGGCCAGUACCGGAGAAGGCGCGUCGA [Excls1-Va] (puzzle: Exclusion 1),27.6,–,–,–,–,–
"GAAUAACAUGAGGAUCACCCAUGUUAGGAUAUGACGUCGUUUAGUCUUUAAACGAGCGUUAGAAGGAACAGGUG [Eternabot (L1) Solution 11] (Eterna round: R97, puzzle: Exclusion 1)",–,70.8,56.8,–,–,–
"GAAUAGCAAGCGAGAUCCCACAUGAGGAUCACCCAUGUGCUCGUCUUAUAAAGUACUGUGACGAAAGUCACGGUACA [Mat - Sensor, turn-off var - Eli Mod - D12] (Eterna round: R97, puzzle: Sensor, turn-off variant 1)",–,14.6,17.8,–,–,–
"GAAUAGCAAGCGAGAUCCCACAUGAGGAUCACCCAUGUGCUCGUCUUAUAAAGUACUGUGACGAGAGUCACGGUACA [Mat - Sensor, turn-off var - Eli Mod - D14] (Eterna round: R97, puzzle: Sensor, turn-off variant 1)",–,14.3,16.1,–,–,–
"GAAUGCAAGUAAAGAUCUUACAUGAGGAUCACCCAUGUGCUCGUCUUAUAAAGUACUAUCACGAAAGUGAUAGUACA [Mat - Sensor v3 - turn-off var 1 - Eli Mod - D90] (puzzle: Sensor v3, turn-off variant 1)",84.1,–,–,16.3,17.4,–
"GAAUUAAUUAAUUAAUAAUACAUGAGGAUCACCCAUGUAGAUCCUACAUACAAGCUAAGUAGCUCGUCUUAUAAUUA [Stov1/2-A2] (Eterna round: R97, puzzle: Sensor, turn-off variant 1)",–,313,261,–,–,–
"GAAUUCCGAGGAUAUUCGGAACCAGACAUGAGGAUCACCCAUGUGAUGCAGUUUCCGUUCGAAGAAGGUGGAACGC [Eternabot (Original) Solution 28] (Eterna round: R97, puzzle: Exclusion 5)",–,22.5,23.3,–,–,–
"GAAUUGUGAGGAUAUUAGUUGUACGUCAAUAGACGUAUAAGUGAGAAGGCACAUGAGGAUCACCCAUGUUCCUG [salish99_ex4_r4_401] (Eterna round: R97, puzzle: Exclusion 4)",–,57.8,19.4,–,–,–
"GACAUGAGGAUCACCCAUGUAAGGGAUGAACUUCUGGGUAGCUAGGAUAUGGCUACAAAGGUGGACCAGAAGGAGCGUACCCUU [Amaqura] (Eterna round: R96, puzzle: Exclusion NG 3)",–,10.6,28.6,–,–,14.3
"GACCACUCAGGAUAUCGGACGGGAAACAUGAGGAUCACCCAUGUGAUGCUGAUAUUCGCACGAGAAGGGAGAAUGA [EX5 B.21] (Eterna round: R97, puzzle: Exclusion 5)",–,19.8,18.8,–,–,–
GACCUCACGGUCAGGAUAUCAGAACGUAAUGCGCAUGAGAAGGGACAUGAGGAUCACCCAUGUGGGCUCGUCGC [Maedvequ] (puzzle: Brourd's mod of Exclusion 4),11.8,–,–,–,–,–
"GACCUGGCGAAGGAUAUCUGGAGGGAGUACAUCAGAGAAGGUCGCACAUGAGGAUCACCCAUGUUUGCAAUAGC [Eternabot (Original) Solution 22] (Eterna round: R97, puzzle: Exclusion 6)",–,25.7,21.6,–,–,–
"GACGAAAGAGGAUAUACCGUACGACCCUCGUCAGGGAUCCGACAUGAGGAUCACCCAUGUAGAAGGCUUGCGUC [Eternabot (Original) Solution 25] (Eterna round: R97, puzzle: Exclusion 2)",–,763,200,–,–,–
"GACGCUGACCGAGGAUAUACAAUAAAACAACAAACUCCUCGUGUCAGAACAUGAGGAUCACCCAUGUAGAAGGCGGCAGGUCUA [Rilebibidi] (Eterna round: R96, puzzle: Exclusion NG 2)",–,78.5,58.1,–,–,44.4
"GACUAAAUGUGGUUUGGUUACAUGAGGAUCACCCAUGUUGGUCUAAGAACAUGUCUUUUGUACGCUUGUCUUAUAUA [JR_SV3TOV1_Sub067] (puzzle: Sensor v3, turn-off variant 1)",324,–,–,630,896,–
"GACUGGACGUGGUCUGGUAACAUGAGGAUCACCCAUGUAGGUCUAAGAACAUGCCUUUUGCACGCUCGUCUUAUAUA [JR_SV3TOV1_Sub064] (puzzle: Sensor v3, turn-off variant 1)",34.8,–,–,33.3,32.7,–
GAGAAAUUAUAGGAUAUCGAAAGUAUAAUUUAACGAGAAGGAUGAACAUGAGGAUCACCCAUGUGGUAUCAUGG [JL-ex6-3.10] (puzzle: Exclusion 6),88.2,–,–,283,297,–

Sequence,apparent KD of MS2 coat protein [1] [nM],apparent KD of MS2 coat protein (input ligand: FMN 200 uM) [nM],apparent KD of MS2 coat protein (input ligand: none) [nM],apparent KD of MS2 coat protein [2] [nM],apparent KD of MS2 coat protein [3] [nM],apparent KD of MS2 coat protein [4] [nM]
"GAGAACUGAGGAUAUACAUGAGGAUCACCCAUGUUGAGAAGAAAGUAUAAAAGAUUGUGUAGAAGGCAGAGAGA [JR_Ex3_Sub069] (Eterna round: R97, puzzle: Exclusion 3)",–,52.3,35.8,–,–,–
GAGAAGGUAGGAUAUACGAAGAAAAAGGGUAGAAGAAGAACACAUGAGGAUCACCCAUGUAGAAGGACCAAGAG [Mat - Exclusion 2 - Mod of my Tesla design - D17] (puzzle: Exclusion 2),21.5,–,–,38,22.5,–
GAGGAGCAAGGAUAUACGAGGAUAUGGAAGGUUGGAGAGUGACAUGAGGAUCACCCAUGUAGAAGGUGCAAGGG [JR_Exclu2_Sub096] (puzzle: Exclusion 2),91.8,–,–,65.9,131,–
"GAGGAUGUAGGAUAUACUUAGGGUGAGCUCUAAGUGAAUCAACAUGAGGAUCACCCAUGUAGAAGGGCAGGACG [Eternabot (Original) Solution 37] (Eterna round: R97, puzzle: Exclusion 2)",–,248,122,–,–,–
GAGGGACAUGAGGAUCACCCAUGUGAGGAUAUGUGAGAAGGAUUGGAGAGAAUAAGAAACAGAAGGCGCUGUAG [JR_Exclu1_Sub088] (puzzle: Exclusion 1),88.9,–,–,107,138,–
"GAGUACAGAGGAUAUACAUGAGGAUCACCCAUGUGUUUCAGCUAGGAGACUAGCGAAAGUAGAAGGCUGUACUG [salish99_ex3_r4_006] (Eterna round: R97, puzzle: Exclusion 3)",–,23.4,10.3,–,–,–
GAGUAGGUAGGAUAUACGAUAAUAUAGGGUAGAUAUAUAACACAUGAGGAUCACCCAUGUAGAAGGACCAGGAG [Mat - Exclusion 2 - Mod of my Tesla design - D63] (puzzle: Exclusion 2),38.3,–,–,115,36.6,–
GAGUGACAUGAGGAUCACCCAUGUGAGGAUAUCGGCCGGACCUUGUUAGCUUCCACCGCGAGAAGGCACAUCGG [Exclusion 1 V29] (puzzle: Exclusion 1),20.3,–,–,–,–,–
GAGUGGCAAGGAUAUACAGAGGAGAGGAAGGCAAGAGGUGGACAUGAGGAUCACCCAUGUAGAAGGUGCAGAGG [JR_Exclu2_Sub025] (puzzle: Exclusion 2),134,–,–,157,288,–
GAUACACAUGAGGAUCACCCAUGUUAGGAUAUUAGCGGGAAAGCUGUCAGACAGUCGAUGAGAAGGAACAGGAG [Excls1-VIII] (puzzle: Exclusion 1),29.3,–,–,–,–,–
"GAUAGAGCAGGAUAUCGAGAUCCGCACAUGAGGAUCACCCAUGUUCGGUCGAAAGACCGACGAGAAGGGCUCUAUC [Omei Ex5 E8] (Eterna round: R97, puzzle: Exclusion 5)",–,639,603,–,–,–
"GAUAUGCGUGUGAGGAUAUUCGACGCGCAAACGGAGAAGAAGGCACAUGAGGAUCACCCAUGUGGAGGGAAGAA [BmEX4 A.13] (Eterna round: R97, puzzle: Brourd's mod of Exclusion 4)",–,82.8,20.7,–,–,–
"GAUCAACAUGAGGAUCACCCAUGUUAGGAUAUGUCCACGUGGCAUAGGACCACGUGUGGCAGAAGGAGCGUUAA [Eternabot (L2) Solution 52] (Eterna round: R97, puzzle: Exclusion 1)",–,37.9,37.4,–,–,–
"GAUCAGUCAGGAUAUCAAUCCGCCUGUGAUACGCAGGCGGCUGAGAAGGGACAUGAGGAUCACCCAUGUAAAGA [jl-ex4-4.22 ViennaUCT mod] (Eterna round: R97, puzzle: Exclusion 4)",–,191,80.4,–,–,–
"GAUCAUGCAGGAUAUACAUAAACCAUGAAAACAUGGAUCAAACAUGAGGAUCACCCAUGUAGAAGGGCAUGAUC [Omei Ex2 A20] (Eterna round: R97, puzzle: Exclusion 2)",–,42,24.1,–,–,–
"GAUCAUGCAGGAUAUACAUGGAACAUGAAAACAUGAAUUUCACAUGAGGAUCACCCAUGUAGAAGGGCAUGAUC [Omei Ex2 A12] (Eterna round: R97, puzzle: Exclusion 2)",–,54.2,579,–,–,–
"GAUCCUUUUACGGACGUCUCGAAACAUGAGGAUCACCCAUGUGAGGAUAUCUCCGAAAGGUCGGCAGAGAAGGCACAAUAACAA [MOD2 Eternabot solution 19 score 84.66] (Eterna round: R96, puzzle: Exclusion NG 3)",–,29.4,18.7,–,–,13
